# Assay results as given in patent publication US20020054882A1 (TAKARA SHUZO, published 2002).
# B1: monoclonal antibody C179 (antibody)
# chain 1: EVKLVESGGGLVQPGGSLRLSCGTSGFTLTDDYMTWVRQPPGKALEWLGFIRDRANGYTTEYSASVKGRFTISRDNSQSIVYLQMNTLRVEDSATYYCARPKGYFPYAMDYWGQGT
# chain 2: DIQMTQSPASQSASLGESVTITCLASQTIGTWLAWYQQKPGKSPQLLIYAATSLADGVPSRFSGSGSGTKFSFKISSLQAEDFVSYYCQQLYSTPW
# What was measured:
# Assay in all cases: cell-based or functional assay
# [1] = biological target: HA molecule of A/Sichuan/2/87 (H3N2) (influenza A virus A/Sichuan/2/87 (H3N2))
# [2] = biological target: HA molecule of A/Yamagata/120/86 (H1N1) (influenza A virus A/Yamagata/120/86 (H1N1))
# [3] = biological target: HA molecule of A/Kitakyushu/159/93 (H3N2) (influenza A virus A/Kitakyushu/159/93 (H3N2))
# [4] = biological target: HA molecule of A/Suita/1/90 (H3N2) (influenza A virus A/Suita/1/90 (H3N2))
# [5] = biological target: HA molecule of A/Fukuoka/C29/85 (H3N2) (influenza A virus A/Fukuoka/C29/85 (H3N2))
# [6] = biological target: HA molecule of A/Bangkok/10/83 (H1N1) (influenza A virus A/Bangkok/10/83 (H1N1))
# [7] = biological target: HA molecule of A/Kumamoto/1/65 (H2N2) (influenza A virus A/Kumamoto/1/65 (H2N2))
# [8] = biological target: HA molecule of A/Osaka/930/88 (H1N1) (influenza A virus A/Osaka/930/88 (H1N1))
# [9] = biological target: HA molecule of influenza B virus strain B/Nagasaki/1/87 (influenza B virus B/Nagasaki/1/87)
# [10] = biological target: HA molecule of A/Kaizuka/2/65 (H2N2) (influenza A virus A/Kaizuka/2/65 (H2N2))
# [11] = biological target: HA molecule of A/Izumi/5/65 (H2N2) (influenza A virus A/Izumi/5/65 (H2N2))
# [12] = biological target: HA molecule of A1/FM/1/47 (H1N1) (influenza A virus A1/FM/1/47 (H1N1))
# [13] = biological target: HA molecule of A/Ibaraki/1/90 (H3N2) (influenza A virus A/Ibaraki/1/90 (H3N2))
# [14] = biological target: HA molecule of A2/Aichi/2/68 (H3N2) (influenza A virus A2/Aichi/2/68 (H3N2))
# [15] = biological target: HA molecule of A/Adachi/2/57 (H2N2) (influenza A virus A/Adachi/2/57 (H2N2))
# [16] = biological target: HA molecule of A/PR/8/34 (H1N1) (influenza A virus A/PR/8/34 (H1N1), UniProt P03452 18-565)
# Chain of HA molecule of A/PR/8/34 (H1N1) (P03452 18-565): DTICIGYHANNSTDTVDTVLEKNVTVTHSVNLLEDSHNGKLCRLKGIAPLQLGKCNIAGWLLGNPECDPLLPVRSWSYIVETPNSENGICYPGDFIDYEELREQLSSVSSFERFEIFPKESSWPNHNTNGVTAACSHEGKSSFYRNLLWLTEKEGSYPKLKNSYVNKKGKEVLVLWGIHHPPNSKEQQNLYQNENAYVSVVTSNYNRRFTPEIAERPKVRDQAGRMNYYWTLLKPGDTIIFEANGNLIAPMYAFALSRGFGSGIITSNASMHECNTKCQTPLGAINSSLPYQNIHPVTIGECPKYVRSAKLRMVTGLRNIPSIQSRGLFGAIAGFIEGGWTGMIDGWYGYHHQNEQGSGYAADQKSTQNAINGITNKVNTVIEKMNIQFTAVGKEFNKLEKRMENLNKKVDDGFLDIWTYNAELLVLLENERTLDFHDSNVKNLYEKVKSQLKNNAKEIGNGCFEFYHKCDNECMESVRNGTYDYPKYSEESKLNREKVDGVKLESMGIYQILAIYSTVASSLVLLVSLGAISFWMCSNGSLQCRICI
Molecule,HI (hemagglutination inhibition test) (dilution ratio of ascites fluid) [1],HI (hemagglutination inhibition test) (dilution ratio of ascites fluid) [2],HI (hemagglutination inhibition test) (dilution ratio of ascites fluid) [3],HI (hemagglutination inhibition test) (dilution ratio of ascites fluid) [4],HI (hemagglutination inhibition test) (dilution ratio of ascites fluid) [5],HI (hemagglutination inhibition test) (dilution ratio of ascites fluid) [6],HI (hemagglutination inhibition test) (dilution ratio of ascites fluid) [7],HI (hemagglutination inhibition test) (dilution ratio of ascites fluid) [8],HI (hemagglutination inhibition test) (dilution ratio of ascites fluid) [9],HI (hemagglutination inhibition test) (dilution ratio of ascites fluid) [10],HI (hemagglutination inhibition test) (dilution ratio of ascites fluid) [11],HI (hemagglutination inhibition test) (dilution ratio of ascites fluid) [12],HI (hemagglutination inhibition test) (dilution ratio of ascites fluid) [13],HI (hemagglutination inhibition test) (dilution ratio of ascites fluid) [14],HI (hemagglutination inhibition test) (dilution ratio of ascites fluid) [15],HI (hemagglutination inhibition test) [16]
monoclonal antibody C179,< 32,< 32,< 32,< 32,< 32,< 32,< 32,< 32,< 32,< 32,< 32,< 32,< 32,< 32,< 32,–
B1,–,–,–,–,–,–,–,–,–,–,–,–,–,–,–,< 32 dilution ratio of ascites fluid
